Laboratory results published in US20050089932A1, “Novel proteins with targeted binding” (Avidia Research Institute, priority 2001, published 2005).
Each block holds one molecule with its values, some of them ahead of it.

How the values were obtained:
[1] = commercial drugs; cited from earlier work
[2] = target: T1, recombinant human FcERI protein (human, UniProt P12319 26-205, limits assumed); test: Biacore, human IgE on CM5 chip
T1 construct: also called recombinant soluble IgE receptor; IgE receptor R1
T1 sequence (looked up): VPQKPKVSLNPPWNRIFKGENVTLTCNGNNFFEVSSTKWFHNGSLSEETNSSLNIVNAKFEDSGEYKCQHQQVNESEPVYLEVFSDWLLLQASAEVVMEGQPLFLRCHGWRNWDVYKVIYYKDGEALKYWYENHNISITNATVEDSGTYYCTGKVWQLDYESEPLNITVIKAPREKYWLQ
Excerpt: (§1) Human IgE was immobilized to a CM5 chip (BiaCore) using standard NHS/EDC methods. Sample proteins were dialyzed into HBS buffer overnight, and the dialysis buffer was used as a running buffer for the experiment. Sample proteins were run successively over IgE or ethanolamine coated flow cells, and the data analyzed using the BiaEvaluation software package.

[3] = test system: human PBMC; test: PBMC assay on human cells; format: cell-based
Experimental: (§2) Efficacy assays were performed using human and monkey PBMC as described above. CD28 results in PBMC assays:
(§3) In order to assay the ex-vivo efficacy of monomers, they were tested on isolated peripheral blood lymphocytes (PBMC). […]. Monomer protein was added in varying concentrations to each culture and incubation occurred for 3 days at 37° C. in a CO2 containing atmosphere. During the last 9 hours, cultures were pulsed with 1 uCi per well of ^3H thymidine (ICN, Costa Mesa, Calif.) and the incorporation of radioactivity was measured on a Wallac Trilux Microbeta scintillation counter (Perkin Elmer, Boston, Mass.). See, FIG. 23.

[4] = test system: monkey PBMC; test: PBMC assay on monkey cells; format: cell-based, cynomolgus monkeys
Experimental: as §2, §3

[5] = target: human IgE (Homo sapiens, UniProt P01854); test: Biacore affinity measurements on immobilized human IgE; format: binding; conditions: IgE on CM5 chip
Excerpt: as §1

Molecule: Enbrel
- Human T1/2 [1]: 103 h

Molecule: Remicade: TNFa Antibody
- Human T1/2 [1]: 216 h

Molecule: Rituxan: CD20 Antibody
- Human T1/2 [1]: 78 h

- Kd [2]: 450 nM
B1: human IgE (antibody)
chain: ASTQSPSVFPLTRCCKNIPSNATSVTLGCLATGYFPEPVMVTWDTGSLNGTTMTLPATTLTLSGHYATISLLTVSGAWAKQMFTCRVAHTPSSTDWVDNKTFSVCSRDFTPPTVKILQSSCDGGGHFPPTIQLLCLVSGYTPGTINITWLEDGQVMDVDLSTASTTQEGELASTQSELTLSQKHWLSDRTYTCQVTYQGHTFEDSTKKCADSNPRGVSAYLSRPSPFDLFIRKSPTITCLVVDLAPSKGTVNLTWSRASGKPVNHSTRKEEKQRNGTLTVTSTLPVGTRDWIEGETYQCRVTHPHLPRALMRSTTKTSGPRAAPEVYAFATPEWPGSRDKRTLACLIQNFMPEDISVQWLHNEVQLPDARHSTTQPRKTKGSGFFVFSRLEVTRAEWEQKDEFICRAVHEAASPSQTVQRAVSVNPGK
notes: Immobilized on plates or on a CM5 chip; variable regions and light chain not described

B2: CD28 10: CD28 trimer, sequence >CD28-A10 (protein)
chain: CGPGRFQCESGQCVPATWVCDGDDDCADGSDEKSCATTAPTCESNQFQCGSGQCLPGTWRCDGVNDCADSSDETGCGRPGPGATSAPAACGPGRFQCNNGNCVPQTLGCDGDNDCGDSSDEANCSAPASEPPGSL
- inhibition [3]: inhibition = 81%
- inhibition [4]: inhibition = 81%

- ka [5]: 8.4 × 10^3
- kd [5]: 3.8 × 10^−3
B3: FcERI: recombinant human FcERI protein, the IgE receptor (protein)
chain: VPQKPKVSLNPPWNRIFKGENVTLTCNGNNFFEVSSTKWFHNGSLSEETNSSLNIVNAKFEDSGEYKCQHQQVNESEPVYLEVFSDWLLLQASAEVVMEGQPLFLRCHGWRNWDVYKVIYYKDGEALKYWYENHNISITNATVEDSGTYYCTGKVWQLDYESEPLNITVIKAPREKYWLQ
